Laboratory results reported in patent US5633145, “TNFα receptor-derived binding protein” (The Mathilda and Terence Kennedy Institute of Rheumatology, dated 1997).

Key:
recombinant human TNFα = recombinant human TNFα (human, UniProt P01375, radioiodinated (125I, Iodogen method) in the radioligand binding assays; unlabelled as competitor and in the cytotoxicity assays); assay: radioligand binding of 125I-TNFα to COS cells transfected with prTNFR, Scatchard analysis, 4 °C
Experimental: (§1) COS cells transfected with the TNFα receptor cDNA (prTNFR, 1300 bp EcoRI fragment) were incubated for 24 hours and then seeded into six well tissue culture plates (Nunc) at 4.5 ×10^8 cells per well. The cells were incubated for a further 48 hours and then receptor expression was quantitated by radioligand binding for 2 hours at 4° C. […] Binding data was analysed by the method of Scatchard (14).
The resulting plasmid was transfected into COS cells which were analyzed for TNF receptor expression after three days.

recombinant human TNFβ = target: T1, recombinant human TNFβ (human, UniProt P01374); assay: competition with 1 nM 125I-TNFα on COS-7 cells transfected with the TNFR cDNA; competitor 125I-TNFα
T1 sequence: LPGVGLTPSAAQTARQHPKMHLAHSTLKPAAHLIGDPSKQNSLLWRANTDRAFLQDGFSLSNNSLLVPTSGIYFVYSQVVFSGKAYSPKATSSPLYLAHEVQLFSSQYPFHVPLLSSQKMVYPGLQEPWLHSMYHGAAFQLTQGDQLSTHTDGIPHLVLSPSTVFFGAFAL
Experimental: as §1

B1: recombinant human TNFα 55 kD receptor expressed in COS-7 cells from plasmid prTNFR (receptor)
chain: DSVCPQGKYIHPQNNSICCTKCHKGTYLYNDCPGPGQDTDCRECESGSFTASENHLRHCLSCSKCRKEMGQVEISSCTVDRDTVCGCRKNQYRHYWSENLFQCFNCSLCLNGTVHLSCQEKQNTVCTCHAGFFLRENECVSCSNCKKSLECTKLCLPQIENVKGTEDSGTTVLLPLVIFFGLCLLSLLFIGLMYRYQRWKSKLYSIVCGKSTPEKEGELEGTTTKPLAPNPSFSPTPGFTPTLGFSPVPSSTFTSSSTYTPGDCPNFAAPRREVAPPYQGADPILATALASDPIPNPLQKWEDSAHKPQSLDTDDPRTLYAVVENVPPLRWKEF
Recombinant human TNFα
  Ka: 2.5e+09 M⁻¹
Recombinant human TNFβ
  binding result: binds
